Data reported in patent publication US20260008856A1, “METHODS OF TREATING DISEASE USING ANTI-IL1RAP ANTIBODIES AND ANTIBODY DRUG CONJUGATES” (Bluefin Biomedicine, Inc., priority 2022, published 2026).
Residue numbers refer to the chain shown, from its start.

B1: 24G3_17C5: human anti-IL1RAP antibody, VH SEQ ID NO: 90, VL SEQ ID NO: 93 (antibody, V domains shown)
VH: EVQLLESGGGLVQRGGSLRLSCAASGFTFSSYAMSWVRQAPGKGLEWVSSISGSGDSTNYADSVKGRFTISRDNSKNTLHLQMNSLRAEDTAVYYCVRDYYYGMDVWGHGTTVTVSS
VL: EIVLTQSPATLSLSPGERATLSCRASQSVNSYLAWYQQKPGQAPRLLIYDASNRATGIPARFSGSGSGTDFTLTISSLEPEDFAVYYCQQRSYWPITFGQGTRLEIK
B2: 34C11_21B2: human anti-IL1RAP antibody, VH SEQ ID NO: 40, VL SEQ ID NO: 44 (antibody, V domains shown)
VH: EVQVVESGGGLVQPGGSLRLSCAASGFTFRSYWMSWVRQAPGKGLEWVANIKQDGSERHYVDSVKGRFTISRDNAKTSLYLQMSSLRAEDTAVYYCAREGYFGSGYFDYWGQGTLVTVSS
VL: DIQMTQSPSTLSASVGDRVIITCRASQSISRGLAWYQQKPGKAPKLLIYKASNLESGVPSRFSGSGSGTEFTLTISSLQPDDFAAYYCQQYSYYSHTFGQGTKLEIK
B3: 38G11_28A2: human anti-IL1RAP antibody, VH SEQ ID NO: 151, VL SEQ ID NO: 154 (antibody, V domains shown)
VH: B2 VH with V4L, R30S, R58K, T77N, S84N
VL: DIQLTQSPSFLSASVGDRVTITCRASQGISSYLAWYQQKPGKAPKLLIYAASTLQSGVPSRFSGSGSGTEFTLTISSLQPEDFATYYCQQYSFYSHTFGQGTKLEIK
B4: 44E5_15C5: human anti-IL1RAP antibody, VH SEQ ID NO: 71, VL SEQ ID NO: 73 (antibody, V domains shown)
VH: QVQLVESGGGVVQPGRSLRLSCAASGFTFRSHGMHWVRQAPGKGLEWVAVIWYDGSSDYYADSVKGRFTISRDNSKNTLFLQMNSLSAEDTAVYYCARENVYGSGWFFDYWGQGTLVTVSS
VL: EIVMTQSPATLSVSPGERASLSCRASQSVGSNLAWYQQKPGQAPRLLIFGASTRATGIPARFSGSRSGTEFTLTISSLQSEDFALYYCQQYNNWPPWTFGQGTKLEIK
B5: 39G1_21C4: human anti-IL1RAP antibody, VH SEQ ID NO: 56, VL SEQ ID NO: 60 (antibody, V domains shown)
VH: QVQLQESGPGLVKPSETLSLTCAVSGYSASGVYYWGWIRQPPGKGLEWIGNIYHSGSTYYNPSLERRVSISLDTSKNHFSLRLNFVTAADTAVYYCARDRFDAFDIWGQGTMVTVSS
VL: EIVMTQSPATLSVSPGERATLSCRASQSINNILAWYQQKPGQAPRLLIYGASTRATGIPARFSGSGSGTEFTLTISSLQSEDFAVYYCQQYNNWPLTFGGGTKVEIK

Key:
[1] = target: T1, recombinant human IL1RAP (Homo sapiens, UniProt Q9NPH3); experiment: Binding competition binning on Octet; conditions: Protein A biosensors
T1 construct: MBP-IL1RAP(S21-T367)-; 8xHis (C); made in house; host or cells: CHO (ExpiCHO transient expression)
Description: Binding Competition binning: Binding competition among different antibodies was determined using a real-time, interferometry assay on an Octet Red™ instrument with Protein A-conjugated biosensors. To assess whether two antibodies competed for binding to a recombinant IL1RAP protein, the assay was performed as follows. Protein A biosensors were first submerged into wells containing 10 ug/mL of individual monoclonal antibodies for 5 minutes. Following the capture step, the biosensors were dipped briefly (15 seconds) into buffer and then any unoccupied sites on the biosensor were saturated by submerging them for 5 minutes into wells containing 100 ug/mL of an irrelevant monoclonal antibody. The Octet™ biosensors were then dipped briefly (15 seconds) in buffer before immersion for 1 minute into wells containing recombinant IL1RAP. The biosensors were dipped briefly (15 seconds) in buffer before immersion for 1 minute into wells containing a second recombinant antibody.
For the control case where the second antibody was the same as the first, there was no increase in signal, because there was no additional binding to the recombinant target.
For the control case where buffer was used instead of the first antibody, no recombinant target bound the non-quenching antibody on the biosensor and no second antibody bound the biosensor.
Selected antibodies were evaluated in pairs for their ability to simultaneously bind recombinant human IL1RAP. The analysis was performed by Octet™ loaded with Protein A Biosensors. A total of five different bins were determined as follows.

[2] = system: EOL-1; experiment: Flow cytometry binding to endogenous cell line EOL-1; assay type: cell-based, human; set-up: key to binding to EOL-1 by flow cytometry: (−): No binding; (+): Weak binding; (++): Moderate binding; (+++): Strong binding; conditions: for binding to EOL-1 by flow cytometry: primary antibody 1 ug/ml
Description: (§1) Staining for flow cytometry was performed in 1× cold PBS with 0.5% BSA. Primary antibodies (1 ug/ml) were incubated with live cells on ice for 30 minutes, after a brief wash, cells were incubated with Alexa Fluro® 488-conjugated anti-human IgG secondary antibody @1:1000 (709-546-149, Jackson ImmunoResearch). Acquisition of the data was performed on a MACSQuant® Flow Cytometers (Miltenyi Biotec) and analyzed with FlowJo software.
(§2) Over 1,000 hits were identified that bind strongly to CHO-human IL1RAP, but not parental CHO cells. 68 clones were selected for molecular cloning. Based on unique CDR3 sequences from the heavy chain variable domain, 35 antibodies from 13 families were confirmed by binding in IL1RAP positive cell lines EOL1 and Karpas 299 (see Table 8) by flow cytometry (MACSQuant® www.miltenybiotec.com).

[3] = target: T2, rat IL1RAP (Rattus norvegicus, UniProt Q63621); experiment: Flow cytometry binding to 293 cells expressing rat IL1RAP; assay type: cell-based; conditions: 1 ug/ml
T2 construct: Met1-Val570; host or cells: HEK-293T
T2 sequence (Q63621 21-570): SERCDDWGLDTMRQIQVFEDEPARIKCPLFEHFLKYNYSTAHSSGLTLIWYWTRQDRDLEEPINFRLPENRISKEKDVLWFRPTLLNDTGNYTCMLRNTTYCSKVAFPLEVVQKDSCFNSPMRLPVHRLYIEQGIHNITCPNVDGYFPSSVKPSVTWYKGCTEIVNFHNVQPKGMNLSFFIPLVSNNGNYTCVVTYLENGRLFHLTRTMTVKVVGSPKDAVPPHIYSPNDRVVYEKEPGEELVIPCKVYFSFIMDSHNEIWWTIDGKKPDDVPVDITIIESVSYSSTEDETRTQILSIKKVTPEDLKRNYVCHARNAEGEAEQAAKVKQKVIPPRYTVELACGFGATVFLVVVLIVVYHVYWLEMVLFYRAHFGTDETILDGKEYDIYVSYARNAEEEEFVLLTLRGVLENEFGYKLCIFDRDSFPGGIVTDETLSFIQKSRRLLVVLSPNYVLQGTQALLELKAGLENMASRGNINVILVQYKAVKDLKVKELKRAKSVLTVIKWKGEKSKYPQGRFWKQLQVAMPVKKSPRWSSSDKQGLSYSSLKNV
Description: (§3) 293T cell line was purchased from American Type Culture Collection (ATCC). 293T cells expressing human, Macaca fascicularis, rat, and mouse IL1RAP were maintained in DMEM medium (Invitrogen) with 10% fetal bovine serum (FBS) (Sigma) in the presence of 2 ug/ml puromycin (Invitrogen).
as §1

[4] = system: Karpas 299; experiment: Flow cytometry binding to endogenous cell line Karpas 299; assay type: cell-based, human; set-up: key to binding to Karpas 299 by flow cytometry: (−): No binding; (+): Weak binding; (++): Moderate binding; (+++): Strong binding; conditions: for binding to Karpas 299 by flow cytometry: primary antibody 1 ug/ml
Description: as §1, §2

[5] = target: T3, mouse IL1RAP (Mus musculus, UniProt Q61730); experiment: Flow cytometry binding to 293 cells expressing mouse IL1RAP; assay type: cell-based; conditions: 1 ug/ml
T3 construct: Met1-Val570; host or cells: HEK-293T
T3 sequence (Q61730 21-570): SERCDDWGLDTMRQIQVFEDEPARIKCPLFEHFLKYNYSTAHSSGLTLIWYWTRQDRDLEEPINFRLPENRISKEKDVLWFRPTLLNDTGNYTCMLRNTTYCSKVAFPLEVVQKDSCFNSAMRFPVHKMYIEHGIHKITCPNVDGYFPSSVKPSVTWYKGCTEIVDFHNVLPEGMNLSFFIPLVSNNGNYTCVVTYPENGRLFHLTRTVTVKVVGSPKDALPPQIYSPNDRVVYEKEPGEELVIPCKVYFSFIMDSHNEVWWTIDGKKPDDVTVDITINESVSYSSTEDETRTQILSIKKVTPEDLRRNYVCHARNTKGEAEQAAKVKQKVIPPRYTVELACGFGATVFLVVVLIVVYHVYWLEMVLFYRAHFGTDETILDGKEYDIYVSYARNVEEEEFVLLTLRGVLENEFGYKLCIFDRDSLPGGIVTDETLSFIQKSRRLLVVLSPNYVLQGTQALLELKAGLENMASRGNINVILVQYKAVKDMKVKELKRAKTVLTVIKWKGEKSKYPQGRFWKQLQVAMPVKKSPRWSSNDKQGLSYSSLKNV
Description: as §3, §1

[6] = system: MOLT3; experiment: Flow cytometry binding to endogenous cell line MOLT3; assay type: cell-based; set-up: key: (−): No binding; (+): Weak binding; (++): Moderate binding; (+++): Strong binding; conditions: primary antibody 1 ug/ml
Description: as §1

[7] = system: DMS79; experiment: Flow cytometry binding to endogenous cell line DMS79; assay type: cell-based; set-up: key to binding to DMS79 by flow cytometry: (−): No binding; (+): Weak binding; (++): Moderate binding; (+++): Strong binding
Description: as §1

[8] = system: H69; experiment: Flow cytometry binding to endogenous cell line H69; assay type: cell-based; set-up: key: (−): No binding; (+): Weak binding; (++): Moderate binding; (+++): Strong binding; conditions: primary antibody 1 ug/ml
Description: as §1

[9] = system: IL-33 signaling; experiment: IL-33 signaling reporter cell assay (HEK-Blue IL-33 cells); assay type: cell-based; conditions: antibody 1-10 μg/ml, IL-33 0.5 ng/ml
Description: FIGS. 7A and 7B show blockage of IL-33 signaling by anti-IL1RAP antibodies. HEK-Blue IL-33 cells (Invivogen, CA) were harvested and plated in technical duplicates at a density of 50,000 cells per well in a 96-well plate. Antibodies, or a corresponding human IgG1 control antibody, was added to the wells in a serial dilution starting at 10 μg/ml (FIG. 7A), or a concentration of 1 and 10 μg/ml (FIG. 7B). After incubating cells with antibodies for 30 minutes, IL-33 was added to a final concentration of 0.5 ng/ml, and the plate was incubated overnight. 24 hours later, substrate was added to the supernatants, and samples were analyzed for absorbance at 620 nm. CBIgG1 (anti-hen egg lysozyme antibody, CrownBio™) was included as a negative control.
(§4) HEK-Blue IL-33 cells (Invivogen, CA) were harvested and plated in technical duplicates at a density of 50,000 cells per well in a 96-well plate. antibodies, or a corresponding human IgG1 control antibody was added to the wells in a concentration range of […]. After incubating cells with antibodies for 30 minutes, IL-33 was added to a final concentration of 0.5 ng/ml, and the plate was incubated overnight. To examine whether any of the antibodies were able to induce ST2 activation in the absence of IL-33, samples were incubated with 10 μg/mL antibody without addition of the ligand. The following day, substrate was added to the supernatants, and samples were analyzed for absorbance at 620 nm.

[10] = system: IL-1α signaling; experiment: IL-1 signaling reporter cell assay, IL-1α; assay type: cell-based; conditions: serial dilution of antibody
Description: as §4, with “IL-1β” for “IL-33”, “plate. IL1RAP” for “plate.”, “IL-1R” for “ST2”, “IL-1β,” for “IL-33,”
In addition, serial dilution of IL1RAP antibodies was performed to determine EC50 against IL-1β and IL-1α (FIGS. 6B and 6C). Many of these antibodies, including 37E10_15B5 and 44E5_15C5 can block IL-1β and IL-1α signaling with subnanomolar EC50.

[11] = system: IL-1β signaling; experiment: IL-1 signaling reporter cell assay (HEK-Blue IL-1β cells), IL-1β; assay type: cell-based; conditions: for inhibition of IL1R1 / IL-1 signaling: HEK-Blue IL-1β cells, antibody 1-10 pg/ml, IL-1β 0.5 ng/ml
Description: as §4, with “IL-1β” for “IL-33”, “plate. IL1RAP” for “plate.”, “IL-1R” for “ST2”, “IL-1β,” for “IL-33,”

Row | Molecule | competition for binding, bin (1) [1] | binding to EOL-1 by flow cytometry [2] | binding to 293 cells expressing rat IL1RAP [3] | binding to Karpas 299 by flow cytometry [4] | binding to 293 cells expressing mouse IL1RAP [5] | binding to MOLT3 by flow cytometry [6] | binding to DMS79 by flow cytometry ([7]; primary antibody 1 ug/ml) | competition for binding, bin (2) [1] | binding to IL1RAP positive cell line EOL1 ([2]; flow cytometry, FIG. 2) | binding to IL1RAP negative cell line DMS79 ([7]; flow cytometry, FIG. 2) | binding to H69 by flow cytometry [8] | inhibition of IL-33 signaling [9] | EC50 against IL-1α [10] | binding to IL1RAP positive cell line Karpas 299 ([4]; flow cytometry, FIG. 2) | inhibition of IL1R1 / IL-1 signaling [11] | EC50 against IL-1β ([11]; serial dilution of antibody, reporter assay)
1 | B1 | competed with each other | (++) | bind | (++) | bind weakly | – | – | – | – | – | – | – | – | – | – | –
2 | B2 | competed with each other | (+++) | bind | (+++) | – | (+) | – | – | – | – | – | – | – | – | – | –
3 | B3 | – | (++) | – | (++) | – | – | (−) | – | – | – | – | – | – | – | – | –
4 | B4 | – | (+++) | – | – | – | – | – | competed with each other | specific binding | lack of binding | (−) | partially inhibit | subnanomolar | specific binding | potent inhibition | subnanomolar
5 | B5 | competed with each other | (+++) | – | – | bind weakly | (+) | – | – | – | – | – | do not inhibit | – | – | do not inhibit | –
